From the nanobody polyreactivity screen of Harvey et al. (2022)

experiment: yeast display, Sf9 membrane polyspecificity reagent, FACS + sequencing; frameworks hold sequencing errors
Outline: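 After 36–48 hours of galactose induction, yeast (Saccharomyces cerevisiae BJ5465) displaying a synthetic nanobody library were stained at 4 °C for 1 hour with 10% biotinylated, detergent-solubilized Sf9 membrane reagent. Streptavidin microbeads enriched the stained cells before FACS sorting into low and high (top ~1%) gates on anti-HA and streptavidin fluorescence. Each clone's polyreactivity label reflects its gate of origin.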

| Sequence | polyreactivity (PSR sort gate) |
| --- | --- |
| QVQLVESGGGLVQAGGSLRLSCAASGSIRSYAMGWYRQAPGKERELVAAITRSGGSTYYADSVKGLFTISRDNAKNTVYLQMNSLKPEDTAVYYCAARYTYSYPLFGSWGQGTQVTVSS | high polyreactivity |
| QVQLVESGGGLVQAGGSLRLSCAASGSIRSYAMGWYRQAPGKERELVAAITRSGGSTYYADSVKGRFTISRDNAKNTVYLQMNSLKPEDTADYYCGARSTYSYPLFGSWGQGTQVTVSS | high polyreactivity |
| QVQLVESGGGLVQAGGSLRLSCAASGSIRYYAMGWYRQAPGKERELVAAISSRGTNTYYADSVKGRFTISRDNAKNTVYLQMNSLKPEDTAVYYCNAVVGLGYNYWGQGTQVTVSS | high polyreactivity |
| QVQLVESGGGLVQAGGSLRLSCAASGSISAGNAMGWYRQAPGKERDLVAAISGSGGSTYYADSVKGRFTISRYNAKNTVYLQMNRLKPEDTAVYYCAARGGYRLRYIPYVRYDYWGQGTQVTVSS | high polyreactivity |
| QVQLVESGGGLVQAGGSLRLSCAASGSISASYAMGWYRQAPGKERELVAAITSGGSTYYADSVKGRFTISRDNAKNTVYLQMNSLKPEDTAVYYCAKRPKRTYYPHIGYDYWGQGTQVTVSS | low polyreactivity |
| QVQLVESGGGLVQAGGSLRLSCAASGSISAVNAMGWYRQAPGKERELVAAITYSGGSTYYADSVKGRFTISRDHAQNTVYLQINSLKPEDTAVYNCAARARYPNWTYYYWGQGTQVTVSS | high polyreactivity |
| QVQLVESGGGLVQAGGSLRLSCAASGSISDVYTMGWYRQAPGKERELVAANSFSGDSTYYADSVKGRFTISRDNAKNTVYLQMNSLKPEDTAVYYCATDVGYVYGYYYWGQGTQVTVSS | low polyreactivity |
| QVQLVESGGGLVQAGGSLRLSCAASGSISFLYTMGWYRQAPGKERELVAAITGSTASTYYADSVKGRFTISRDNAKNTVYLQMNSLKPEDTAVYYCNADSYPGLNPDFDYWGQGTQVTVSS | low polyreactivity |
| QVQLVESGGGLVQAGGSLRLSCAASGSISFRYAMGWYRQAPGKDRELVAAITSGGGTTYYADSVKGRFTISRDNAKNTVYLQMNSMKPEDTAVYYCAKPRARQAFDYWGQGTQVTVSS | high polyreactivity |
| QVQLVESGGGLVQAGGSLRLSCAASGSISFSNAMGWYRQAPGKERELVASITSGGSTKYADSVKGRFTISRDNAKNTVFLQMNSLKPEDTAVFYCAADGYDYWGQGTQVTVSS | low polyreactivity |
| QVQLVESGGGLVQAGGSLRLSCAASGSISGYNAMGWYRQAPGKERELVAAISWAGGITRYADSVKGRFTISRDNAKNPVYLQMNSLKPEDTAVYYCAADQTYERHWVYYWGQGTQVTVSS | low polyreactivity |
| QVQLVESGGGLVQAGGSLRLSCAASGSISGYNAMGWYRQAPGKESELVAVITTDGSTNYADSEKGRFTISRDNAKNTVYLQMNSLKPEDTAVYYCNTDDGWRLLWEYDYWGQGTQVTVSS | low polyreactivity |
| QVQLVESGGGLVQAGGSLRLSCAASGSISGYYAMGWYRQAPGKERDLVASIRYTGARTYYADSVKGRFTISRDNAKNTVYVQMNSLKPEDTAVYYCAADVKRERVWGGDYWGLGTQVTVSS | low polyreactivity |
| QVQLVESGGGLVQAGGSLRLSCAASGSISGYYAMGWYRQAPGKERELVASIRYTGARTYYADSVKGRFTISRDNAKNTVYLQMNSLKPEDTAVYYGAADVKRDRVWGGDYWGQGTQVTVSS | low polyreactivity |
| QVQLVESGGGLVQAGGSLRLSCAASGSISHLYTMGCYRQSPGKERELVAAIRYSGGRTDYADSVKGRFTISRDNAKNTVYLQMNSLKPEDTAVYYCAAGRSFRGSYWYEYWGQGTQVTVSS | high polyreactivity |
| QVQLVESGGGLVQAGGSLRLSCAASGSISNRYAMGWYRQAPGKERELVAAISTGGGTTYYADSVKGRFTISRDNAKNTVYLQMNSLKPEDTAVYYCAADDWRYYRELDYWGQGTQVTVSS | low polyreactivity |
| QVQLVESGGGLVQAGGSLRLSCAASGSISSGYTMGWYRQAPGKERELVASIRSGGSTYYADSVKGRFTISRDNAKNTVYLQMNSLKPEDTAVYYCAARFFYRYSWGRTRGYDYWGQGTQVTVSS | high polyreactivity |
| QVQLVESGGGLVQAGGSLRLSCAASGSISSVNVMGWYRQAPGKERELVAAISSGTSTHYADSVKGRFTISRDNAKNTVYLQMNSLKPEVTAVYYCNKTSFLVKLDYWGQGTQVTVSS | low polyreactivity |
| QVQLVESGGGLVQAGGSLRLSCAASGSISTNYAMGWSRQAPGKERELVAAISSSGGSTYYADSVKGRFTISRDNAKNTVYLQMNSLKPEDTAVYYCRYKFGYWGQGTQVTVSS | high polyreactivity |
| QVQLVESGGGLVQAGGSLRLSCAASGSISVRNVMGWYRQAPGKERELVATIRRPGGSTSYADSVKGRFTISRDNAKNTVYLQMNSLKPEDTAVYYCAAVGYTTYRRYDYWGQGTQVTVSS | low polyreactivity |
| QVQLVESGGGLVQAGGSLRLSCAASGSISVVNMGWYRQAPGKERELVASITSSGSTTYADSVKGRFTISRDNAKNTVYLQMNSLKPEDTAVYYCAAVRCRSQPYWYHSMDHWGQGTQVTVSS | low polyreactivity |
| QVQLVESGGGLVQAGGSLRLSCAASGSISVWYVMGWYRPAPGTERELVAAITRSGGSTFYADSVKGRFTISRDNAKNTVYLQMNSLKPEDTAVYYCAADGGVAWGYGYWGQGTQVTVSS | low polyreactivity |

| Sequence | polyreactivity (PSR sort gate) |
| --- | --- |
| QVQLVESGGGLVQAGGSLRLSCAASGSISVYNAMGWYRQAPGKERELVAAISWSGGRTSYADSVKGRFTISRDNAKNTVYLQMNSLKPEDTAVYYCAADELTVLWDEDYWGQGTQVTVSS | low polyreactivity |
| QVQLVESGGGLVQAGGSLRLSCAASGSISYPYDMGWYRQAPGKDRELVAAISGSGGRTYYADSLKGRFTLSRDTAKNTVYLQMNSLKPEVTAVYYCAAERGAYRGVTFTYGYWGQGTQVTVSS | high polyreactivity |
| QVQLVESGGGLVQAGGSLRLSCAASGSISYQNAMGWYRQAPGKERELVAAISGDGDSTYYADSVKGRFTISRDNAKNTVYLQMNSLKPEDTAVYYCAAEPNVYFSVFVLFPYDYWGQGTQVTVSS | low polyreactivity |
| QVQLVESGGGLVQAGGSLRLSCAASGSISYTYAMGWYRQATGKERELVASISYSEGITYYADSVKGRFTISRDNAKNTVYLQMNSLKPEDTAVYYCAVEGVYPYYDQSEYDYWGQGTQVTVSS | high polyreactivity |
| QVQLVESGGGLVQAGGSLRLSCAASGSISYVYAMGWYRQAPGKERELFAAISYSDGSTYYADSVKGRFTISRDNAKNTVYLQMISLKPEDTAVYYCAADAVYPFPYYWEYYYWGQGTQVTVSS | high polyreactivity |
| QVQLVESGGGLVQAGGSLRLSCAASGSITYLYAMGSYRQAPGKERELLASITWSGGSTYYADSVKGRFTISRDNAKNTVYLQMNSLKPEDTAVYDCAALYQPFPWTWDGYYWGQGTQVTVSS | low polyreactivity |
| QVQLVESGGGLVQAGGSLRLSCAASGSIVGSYAMGWYRQAPGKERELVAGIRSGGSTYYADSVKGRFTISRDNAKNTVYLQMNSLKPEDTAVYYCAGHEEYWGHGTQVTVSS | low polyreactivity |
| QVQLVESGGGLVQAGGSLRLSCAASGSIVPTYAMGWYRQAPGKERELVAAIRSGSNTYYADSVKGRFTISRDNAKNTVYLQMNSLKPEDTAVYYCNVGPQRKYPGRRTVPFGYWGQGTQVTVSS | low polyreactivity |
| QVQLVESGGGLVQAGGSLRLSCAASGSIYAINVMGWYRQAPGKERDFDAAISVRSGSTYYADSVKGRITISRDNAKNTVYLQMNSLKPEDTAVIYCAARTSRFWRGGGLDYWGQGTQVTGSS | high polyreactivity |
| QVQLVESGGGLVQAGGSLRLSCAASGSIYARNAMGWYRQAPGKERELVAAIRYSGGSTYYADSVKGRFTISRDNAKNTVYLQMNSLKPEDTAVYYCAARWGVFGYYYWGQGTQVTVSS | high polyreactivity |
| QVQLVESGGGLVQAGGSLRLSCAASGSIYDYNTMGWYRQAPGKERELVAAISASGGRTYYADSEKGRFTISRDNAKNTVYLQMNSLKPEDTAVYYCARYYIGYYERFGYDYWGQGTQVTVSS | high polyreactivity |
| QVQLVESGGGLVQAGGSLRLSCAASGSIYFLYAMGWYRQAPGKERELVAAISWSVDRTYYADSVKGRFTISRDNAKNTVYLQMNSLKPEDTAVYYCAAVHWWSSSLRMYYWGQGTQVTVSS | low polyreactivity |
| QVQLVESGGGLVQAGGSLRLSCAASGSIYGRNAMGWYRQAPGKERELFAAISSSGGRTYYADSVKGRFTISRDNAKNTVYLQMNSLKPEDTAVYYCAADASYARYYSQYDYWGQGTQVTVSS | high polyreactivity |
| QVQLVESGGGLVQAGGSLRLSCAASGSIYIVNVMGWYRQAPGKERELVAGITTNGGITYYADSVKGRFTISRDNAKNTVYLQMNSLKPEDTAVYYCATRSGSPSSIEMDYWGQGTQVTVSS | low polyreactivity |
| QVQLVESGGGLVQAGGSLRLSCAASGSIYPFYAMGWYRQAPGKERELVATISSGDSTHYADSVKGRFTISRDNAKNTVYEQMNSLKPEDTAVYYCNRRNKAQRFFDLGYWGQGTQVTVSS | low polyreactivity |
| QVQLVESGGGLVQAGGSLRLSCAASGSIYRYTMGWYRQAPGKERELVASISLSGGRTYYADSVKGRFTISRDNAKNTVYLQMNSLKPEDTAVYDCGTDNRYRSSGQWIRRGYWGQGTQVTVSS | high polyreactivity |
| QVQLVESGGGLVQAGGSLRLSCAASGSIYSYNVMGWYRQAPGKERELVAAITRSGGSTYYADSVKGRFTISRDNAKNTVYLQMNSLKPEDTAVYYCATAYYSTPFREYSYWGQGTQVTVSS | low polyreactivity |
| QVQLVESGGGLVQAGGSLRLSCAASGSIYTNAMGWYRQAPGKERELVAAISKRGGSTNYADSVKGRFTISRDNAKNTVYLQMNSLKPEDTAVYYCNRTGSTGYVQVWRPGDYWGQGTQVTVSS | high polyreactivity |
| QVQLVESGGGLVQAGGSLRLSCAASGSIYVLYAMGWYRQAPGKERELVAAISRGVGGKNYADSVKGRFTISRDNAKNTVYLQMNSLIPEDTAVYYCAAQTLRWSHYYYWGQGTQVTVSS | high polyreactivity |
| QVQLVESGGGLVQAGGSLRLSCAASGSIYVNKAMGWYRQAPGKERELVAAISRSGTRTYYADSVKGRFTISRDNAKNTVYLQMNSLKPEDTAVYYCAVDYYYRMDYWGQGTQVTVSS | high polyreactivity |
| QVQLVESGGGLVQAGGSLRLSCAASGSIYVYNAMGWYRQAPGKERELVAAIDTVGSTNYADSVKGRFTISRDNAKNTVYLQMNSLKPEDTAVYYCAVVTPYWSFYDQVIPSNYWGEGTQVTVSS | low polyreactivity |
